Here are results for 2 substances from article doi:10.1101/2025.03.04.641466.

For one experiment, the target named is EGFP-vinculin (UniProt P18206). In words: FRET or BRET. (In BRET a luciferase serves as donor, and the signal depends on an acceptor being close.)
For another experiment, the target named is mTFP1-vinculin (UniProt P18206). In words: FRET or BRET.

For “RIAM-mScarlet (RIAM C-terminally tagged with mScarlet-I) (from UniProt Q7Z5R6 1-666) (natural protein)”, the FRET efficiency in the experiment with EGFP-vinculin came out at 13.5. Consider “mScarlet-RIAM (RIAM N-terminally tagged with mScarlet-I) (from UniProt Q7Z5R6 1-666) (natural protein)”, for which the figures for the FRET efficiency with EGFP-vinculin and with mTFP1-vinculin were 16.4 and 20%, respectively.
